From patent US20240082414A1 (Eli Lilly, published 2024)
Where two headings read alike, the source gives them in different places.

Assays:
canine TNFα = target: T1, canine TNFα (canine, UniProt P51742 77-233); assay: antigen-down ELISA, plate coated with canine TNFα
T1 construct: Bought protein; also called Canine TNFα (R&D Systems, Cat# 1507-CT/CF)
Protocol: (§1) Example 2a. […] Briefly, 384-well high binding plates (Greiner Bio-one #781061) were coated with 20 μL per well of 1 μg/mL of human TNFα (Syngene), 2 μg/mL of rhesus macaque TNFα (R&D Systems, Cat# 1070-RM), or 2 μg/mL of canine TNFα (R&D Systems, Cat# 1507-CT/CF) diluted in carbonate buffer pH 9.3 (0.015 M Na₂CO₃ and 0.035 M NaHCO₃) and stored at 4° C. overnight. […] The plates were incubated at 37° C. for 90 min, then washed three times in PBS/0.1% Tween. 20 μL of secondary antibody reagent goat-anti-human-kappa-AP (Southern Biotech, Cat# 2060-04) with 1:1500 dilution was added to the plate and incubated for 45 minutes at 37° C. Plates were washed 3 times as above, and 20 μL of alkaline phosphatase substrate solution diluted to 1:35 in molecular grade water was added to every well. Once the color developed (approximately 15-30 min), plates were read at 560 nm OD on a Molecular Device Spectramax plate reader and data was acquired using Softmax Pro 4.7 software. Data analysis was performed in GraphPad Prism.

[1] = target: membrane human TNFα (non-cleavable TNFα construct stably transfected into CHO cells) (human, UniProt P01375 1-233); assay: cell-based or functional assay
[2] = target: T2, human TNFα (recombinant, soluble) (human, UniProt P01375 77-233); assay: cell-based or functional assay
T2 sequence (P01375 77-233 limits assumed): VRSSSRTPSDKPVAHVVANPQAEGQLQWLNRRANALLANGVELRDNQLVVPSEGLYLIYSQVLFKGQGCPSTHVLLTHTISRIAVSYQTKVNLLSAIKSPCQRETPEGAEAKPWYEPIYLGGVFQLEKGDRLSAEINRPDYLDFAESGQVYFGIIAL

rhesus macaque TNFα = target: T3, rhesus macaque TNFα (rhesus macaque, UniProt P48094 77-233); assay: antigen-down ELISA, plate coated with rhesus macaque TNFα
T3 construct: Bought protein; also called rhesus macaque monkey TNFα (R&D Systems, Cat# 1070-RM)
T3 sequence (P48094 77-233 limits assumed): as the sequence (P01375 77-233 limits assumed) above, with R44T, T72N, R138L counted along it
Protocol: as §1

[3] = target: T2, human TNFα (recombinant, soluble); assay: antigen-down ELISA, plate coated with human TNFα
Protocol: as §1

[4] = target: TNFα expressed on human monocyte-derived dendritic cells (human, UniProt P01375 1-233); assay: cell-based or functional assay
TNFα expressed on human monocyte-derived dendritic cells, sequence (P01375 whole entry): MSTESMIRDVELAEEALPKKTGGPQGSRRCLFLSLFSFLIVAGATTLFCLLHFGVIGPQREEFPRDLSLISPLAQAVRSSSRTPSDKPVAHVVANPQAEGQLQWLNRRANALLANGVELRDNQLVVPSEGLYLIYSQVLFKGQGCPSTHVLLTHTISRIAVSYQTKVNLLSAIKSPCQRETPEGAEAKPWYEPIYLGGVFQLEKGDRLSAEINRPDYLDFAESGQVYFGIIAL

[5] = target: T2, human TNFα (recombinant, soluble); assay: antigen-down ELISA, plate coated with human TNFα; remark: listed apart in the source
Protocol: as §1

[6] = target: T2, human TNFα (recombinant, soluble); assay: cell-based or functional assay; remark: listed apart in the source

T1 sequence (P51742 77-233 limits assumed): as the sequence (P01375 77-233 limits assumed) above, with R2K, Q21E, N30S, R44T, V49I, E53D, I83F, A109T, R138L, D140N counted along it

B1: anti-human TNFα antibody Ab3 (antibody, human IgG1, kappa, V domains shown)
VH: QVQLVQSGAEVKKPGASVKVSCKASGYTFTGYYMHWVRQAPGQGLEWMGWINPYTGGTKYAQKFQGRVTMTRDTSISTAYMELSRLRSDDTAVYYCARDLYGSSNYGMDVWGQGTTVTVSS
VL: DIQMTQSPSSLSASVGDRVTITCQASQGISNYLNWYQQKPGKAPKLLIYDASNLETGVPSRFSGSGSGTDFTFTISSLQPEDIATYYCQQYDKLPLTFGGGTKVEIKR
notes: Human IgG1; expressed in CHO cells
EC50 (canine TNFα): 0.24 mg/L
Inhibition of membrane human TNFα-induced apoptosis IC50 (L929 cells) [1]: 0.15 mg/L
Inhibition of soluble human TNFα induced apoptosis IC50 (L929 cells) [2]: 0.19 mg/L
EC50 (rhesus macaque TNFα): 0.141 mg/L
EC50 [3]: 0.216 mg/L
Immature Dendritic Cell Internalization Index [4]: 20
Mature Dendritic Cell Internalization Index [4]: 35.2

B2: anti-human TNFα antibody Ab1 (antibody, human IgG1, kappa, V domains shown)
VH: QVQLVQSGAEVKKPGASVKVSCKASGYTFTGYYIHWVRQAPGQGLEWMGWINPYTGGTNYAQKFQGRVTMTRDTSISTAYMELSRLRSDDTAVYYCARDLYGSSNYGGDVWGQGTTVTVSS
VL: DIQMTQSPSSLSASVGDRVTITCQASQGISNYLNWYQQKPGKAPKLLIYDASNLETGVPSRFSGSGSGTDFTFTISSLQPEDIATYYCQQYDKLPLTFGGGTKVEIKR
notes: Human IgG1 with engineered cysteines at heavy chain positions 124 and 378 (EU numbering); expressed in CHO cells; also called anti-human TNFα Ab1; unconjugated anti-human TNFα Ab1
EC50 (canine TNFα): 0.22 mg/L
Inhibition of soluble human TNFα induced apoptosis IC50 (L929 cells) [2]: 0.16 mg/L
EC50 [5]: 0.28 mg/L
EC50 (rhesus macaque TNFα): 0.156 mg/L
Inhibition of soluble human TNFα induced apoptosis IC50 (L929 cells) [6]: 0.089 mg/L
EC50 [3]: 0.223 mg/L
Immature Dendritic Cell Internalization Index [4]: 19.4
Mature Dendritic Cell Internalization Index [4]: 26.7

B3: anti-human TNFα antibody Ab4 (antibody, human IgG1, kappa, V domains shown)
VH: QVQLVQSGAEVKKPGASVKVSCKASGYTFTGYYMHWVRQAPGQGLEWMGWINPYTGGTKYAQKFQGRVTMTRDTSISTAYMELSRLRSDDTAVYYCARDLYGSSNYGMDVWGQGTTVTVSS
VL: not shown
notes: as for B1
EC50 (canine TNFα): 0.231 mg/L
Inhibition of membrane human TNFα-induced apoptosis IC50 (L929 cells) [1]: 0.13 mg/L
Inhibition of soluble human TNFα induced apoptosis IC50 (L929 cells) [2]: 0.19 mg/L
EC50 (rhesus macaque TNFα): 0.144 mg/L
EC50 [3]: 0.213 mg/L
Immature Dendritic Cell Internalization Index [4]: 33.6
Mature Dendritic Cell Internalization Index [4]: 43.1

B4: anti-human TNFα antibody Ab2 (antibody, human IgG1, kappa, V domains shown)
VH: QVQLVQSGAEVKKPGASVKVSCKASGYTFTGYYIHWVRQAPGQGLEWMGWINPYTGGTNYAQKFQGRVTMTRDTSISTAYMELSRLRSDDTAVYYCARDLYGSSNYGMDVWGQGTTVTVSS
VL: not shown
notes: as for B1
EC50 (canine TNFα): 0.24 mg/L
Inhibition of membrane human TNFα-induced apoptosis IC50 (L929 cells) [1]: 0.13 mg/L
Inhibition of soluble human TNFα induced apoptosis IC50 (L929 cells) [2]: 0.13 mg/L
EC50 (rhesus macaque TNFα): 0.162 mg/L
EC50 [3]: 0.222 mg/L
Immature Dendritic Cell Internalization Index [4]: 21.9
Mature Dendritic Cell Internalization Index [4]: 38.3

B5: anti-human TNFα antibody Ab5 (antibody, human IgG1, kappa, V domains shown)
VH: QVQLVQSGAEVKKPGASVKVSCKASGYTFTGYYMHWVRQAPGQGLEWMGWINPYTGGTKYAQKFQGRVTMTRDTSISTAYMELSRLRSDDTAVYYCARDLYGSSNYGMDVWGQGTTVTVSS
VL: DIQMTQSPSSLSASVGDRVTITCQASQGIRNYLNWYQQKPGKAPKLLIYDASNLETGVPSRFSGSGSGTDFTFTISSLQPEDIATYYCQQYDKLPLTFGGGTKVEIKR
notes: as for B1
EC50 (canine TNFα): 0.176 mg/L
Inhibition of membrane human TNFα-induced apoptosis IC50 (L929 cells) [1]: 0.2 mg/L
Inhibition of soluble human TNFα induced apoptosis IC50 (L929 cells) [2]: 0.22 mg/L
EC50 (rhesus macaque TNFα): 0.161 mg/L
EC50 [3]: 0.22 mg/L
Immature Dendritic Cell Internalization Index [4]: 54.6
Mature Dendritic Cell Internalization Index [4]: 52.7

B6: anti-human TNFα antibody Ab6 (antibody, human IgG1, kappa, V domains shown)
VH: QVQLVQSGAEVKKPGASVKVSCKASGYTFTGYYIHWVRQAPGQGLEWMGWINPYTGGTNYAQKFQGRVTMTRDTSISTAYMELSRLRSDDTAVYYCARDIYGSSNYGGDVWGQGTTVTVSS
VL: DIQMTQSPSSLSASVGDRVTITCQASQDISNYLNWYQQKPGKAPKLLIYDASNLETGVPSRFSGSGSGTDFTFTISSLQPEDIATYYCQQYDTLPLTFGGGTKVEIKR
notes: Human IgG1
EC50 (canine TNFα): 0.162 mg/L
EC50 (rhesus macaque TNFα): 0.115 mg/L
EC50 [3]: 0.131 mg/L
